Experimental data from patent publication US20210253718A1, “FRIZZLED5 PROTEIN-BINDING AGENTS” (Modmab Therapeutics Corporation, priority 2016, published 2021).

T1: FZD8 CRD (Homo sapiens, UniProt Q9H461)
T1 construct: K31-D155; GPI anchor signal (C); expressed in transfected cells; host or cells: CHO cells, lentiviral pLenti-puro
T1 sequence (Q9H461 31-155): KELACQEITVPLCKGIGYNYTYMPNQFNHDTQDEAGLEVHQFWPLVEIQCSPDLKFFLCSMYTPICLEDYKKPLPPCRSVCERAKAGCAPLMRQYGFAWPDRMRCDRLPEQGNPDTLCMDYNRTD

T2: FZD6 CRD (Homo sapiens, UniProt O60353)
T2 construct: S20-P146; GPI anchor signal (C); expressed in transfected cells; host or cells: CHO cells, lentiviral pLenti-puro
T2 sequence (O60353 20-146): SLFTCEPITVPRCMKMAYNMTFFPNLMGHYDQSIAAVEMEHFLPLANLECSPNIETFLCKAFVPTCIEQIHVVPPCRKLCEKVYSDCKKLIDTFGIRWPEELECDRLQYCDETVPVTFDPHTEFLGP

T3: FZD3 CRD (Homo sapiens, UniProt Q9NPG1)
T3 construct: CRD of FZD1, FZD2, FZD3, FZD4, FZD5, FZD6, FZD7, FZD8, FZD9 or FZD10; GPI anchor signal (C); expressed in transfected cells; host or cells: CHO cells, lentiviral pLenti-puro
T3 sequence (Q9NPG1 23-136 limits assumed): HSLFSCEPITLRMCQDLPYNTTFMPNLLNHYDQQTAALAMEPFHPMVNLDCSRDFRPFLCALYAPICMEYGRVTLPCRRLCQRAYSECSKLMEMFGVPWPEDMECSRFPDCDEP

T4: FZD4 CRD (Homo sapiens, UniProt Q9ULV1)
T4 construct: E42-V167; GPI anchor signal (C); expressed in transfected cells; host or cells: CHO cells, lentiviral pLenti-puro
T4 sequence (Q9ULV1 42-167): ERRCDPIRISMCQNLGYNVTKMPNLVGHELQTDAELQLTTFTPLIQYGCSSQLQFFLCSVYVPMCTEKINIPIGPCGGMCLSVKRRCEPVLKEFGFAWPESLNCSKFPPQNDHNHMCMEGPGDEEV

T5: FZD5 CRD (Homo sapiens, UniProt Q13467)
T5 construct: K29-T156; GPI anchor signal (C); expressed in transfected cells; host or cells: CHO cells, lentiviral pLenti-puro
T5 sequence (Q13467 29-156): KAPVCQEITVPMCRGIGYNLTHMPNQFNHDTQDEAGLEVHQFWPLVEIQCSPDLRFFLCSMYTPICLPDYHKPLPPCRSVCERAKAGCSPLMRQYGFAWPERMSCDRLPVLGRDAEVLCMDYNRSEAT

T6: FZD10 CRD (Homo sapiens, UniProt Q9ULW2)
T6 construct: 30-156; GPI anchor signal (C); expressed in transfected cells; host or cells: CHO cells, lentiviral pLenti-puro
T6 sequence (Q9ULW2 30-156): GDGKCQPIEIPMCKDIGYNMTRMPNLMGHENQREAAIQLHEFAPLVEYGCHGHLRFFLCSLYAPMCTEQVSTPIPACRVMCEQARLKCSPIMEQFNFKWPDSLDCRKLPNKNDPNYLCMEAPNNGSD

B1: Fab-2906: anti-FZD5 Fab with antibody variable region Fv-2906; CDR SEQ ID NOs: 35, 36, 45, 84, 121, 158 (antibody, V domains shown)
VH: EVQLVESGGGLVQPGGSLRLSCAASGFNFSSSSIHWVRQAPGKGLEWVAYISSSYGYTYYADSVKGRFTISADTSKNTAYLQMNSLRAEDTAVYYCARTVRGSKKPYFSGWAMDYWGQGTLVTVSS
VL: DIQMTQSPSSLSASVGDRVTITCRASQSVSSAVAWYQQKPGKAPKLLIYSASSLYSGVPSRFSGSRSGTDFTLTISSLQPEDFATYYCQQWSWGFLITFGQGTKVEIK
B2: Fab-2905: anti-FZD5 Fab with antibody variable region Fv-2905; CDR SEQ ID NOs: 35, 36, 44, 83, 120, 157 (antibody, V domains shown)
VH: EVQLVESGGGLVQPGGSLRLSCAASGFNLSYYYMHWVRQAPGKGLEWVASIYSSYSYTSYADSVKGRFTISADTSKNTAYLQMNSLRAEDTAVYYCARSGYALDYWGQGTLVTVSS
VL: DIQMTQSPSSLSASVGDRVTITCRASQSVSSAVAWYQQKPGKAPKLLIYSASSLYSGVPSRFSGSRSGTDFTLTISSLQPEDFATYYCQQSSWYYGYPFTFGQGTKVEIK
B3: Fab-2903: anti-FZD5 Fab with antibody variable region Fv-2903; CDR SEQ ID NOs: 35, 36, 42, 81, 118, 155 (antibody, V domains shown)
VH: EVQLVESGGGLVQPGGSLRLSCAASGFNLSYYYIHWVRQAPGKGLEWVASIYPYSSYTSYADSVKGRFTISADTSKNTAYLQMNSLRAEDTAVYYCARGAIDYWGQGTLVTVSS
VL: DIQMTQSPSSLSASVGDRVTITCRASQSVSSAVAWYQQKPGKAPKLLIYSASSLYSGVPSRFSGSRSGTDFTLTISSLQPEDFATYYCQQWGGGSSLFTFGQGTKVEIK
B4: Fab-2907: anti-FZD5 Fab with antibody variable region Fv-2907; CDR SEQ ID NOs: 35, 36, 46, 85, 122, 159 (antibody, V domains shown)
VH: EVQLVESGGGLVQPGGSLRLSCAASGFNIYSSYMHWVRQAPGKGLEWVASISSYSGSTYYADSVKGRFTISADTSKNTAYLQMNSLRAEDTAVYYCARSSWGAYIVSYGFDYWGQGTLVTVSS
VL: DIQMTQSPSSLSASVGDRVTITCRASQSVSSAVAWYQQKPGKAPKLLIYSASSLYSGVPSRFSGSRSGTDFTLTISSLQPEDFATYYCQQVGYWWGLITFGQGTKVEIK
B5: Fab-2909: anti-FZD5 Fab with antibody variable region Fv-2909; CDR SEQ ID NOs: 35, 36, 48, 87, 124, 161 (antibody, V domains shown)
VH: EVQLVESGGGLVQPGGSLRLSCAASGFNISSSYMHWVRQAPGKGLEWVASISSSSGYTSYADSVKGRFTISADTSKNTAYLQMNSLRAEDTAVYYCARTVRGSKKPYFSGWAMDYWGQGTLVTVSS
VL: DIQMTQSPSSLSASVGDRVTITCRASQSVSSAVAWYQQKPGKAPKLLIYSASSLYSGVPSRFSGSRSGTDFTLTISSLQPEDFATYYCQQSWSYHYLITFGQGTKVEIK

What was measured:
RWP1 cells = assay: Effect of anti-FZD5 Fabs on proliferation of pancreatic cancer cell lines (percent growth inhibition); type: cell-based, human; conditions: Fab 2 μg/ml
FZD8 CRD = biological target: T1, FZD8 CRD; assay: Immunofluorescence of anti-FZD5 Fab binding to CHO cells overexpressing Frizzled CRD; parameters: key: −: no binding; +: very weak binder; ++: weak binder; +++: good binder; ++++: very good binder
Method: (§1) Plasmids: pLCKO lentiviral vector used for knockout (TKO) library construction and expression of individual gRNAs was constructed as described previously (Hart et al., 2015). Briefly, single guide RNA (sgRNA) scaffold was amplified from px330 (Addgene 42230) and cloned into pLKO.TRC005 lentiviral vector (Broad Institute, Cambridge, Mass.) using AgeI/EcoRI restriction sites. BfuAI sites were added at the 5′ end of the sgRNA scaffold for cloning the TKO library or individual gRNA target sequences. Lenti Cas9-2A-BsdR vector used to generate Cas9 stable expression cell lines was constructed as described previously (Hart et al., 2015). Briefly, lentiCRISPR pXPR_001 (Addgene 49535) was modified through removal of the sgRNA scaffold region through NdeI/EcoRI digest and blunt ends generation using Large Klenow Fragment (NEB). 2A-puro was replaced with 2A-BsdR by PCR using the NheI/MluI sites. Each of the 10 human Frizzled cysteine rich domains (CRDs) were cloned into the lentiviral expression plasmid pLenti-puro in the following cassette: FZD_CRD-MYC-GPI.
(§2) To confirm that the FZD5-WNT7B circuit is not driven simply by expression and rule out the possibility of a disconnect between RNA and protein levels for the Wnt receptors in HPAF-II cells, a panel of recombinant Fabs were generated, alternatively referred to herein as ‘Frizzled profiler’, that can detect and discriminate all but one of the ten Frizzled receptors. […] To characterize the binding specificity of these Fabs on cells, a panel of 10 CHO cell lines was generated, each expressing the CRD domain of a different myc-tagged Frizzled family member anchored at the plasma membrane through a GPI anchor (CHO-myc-FZDGPI). Despite the high sequence identity between Frizzled family members (FIG. 7A, FIG. 7B), selective Fabs were identified for FZD4, FZD5, FZD6 and FZD10 as assessed by immunofluorescence and flow cytometry (FIG. 7D and FIG. 8). […] The FZD8 CRD is most homologous to that of FZD5 (FIG. 7B). These Fabs can be used to discriminate expression of FZD1, FZD2, FZD4, FZD5, FZD6, FZD7, FZD8, FZD9 and FZD10 (FIG. 7D and FIG. 8). The ‘Frizzled profiler’ therefore consists of 10 different Fabs that can be used to discriminate expression of 9 different Frizzled family members. The Frizzled profiler was then used to confirm that HPAF-II cells express FZD1, FZD5, FZD6 and possibly FZD8 (FIG. 7E).
(§3) The binding of anti-FZD5 Fabs to cell surface-expressed Frizzled protein was further determined for each member of the Frizzled family via flow cytometry and immunofluorescence analysis of a panel of 10 CHO cell lines, each ectopically over-expressing the extracellular cysteine-rich domain (CRD) of a different Frizzled protein family member.

FZD6 CRD = biological target: T2, FZD6 CRD; assay: as above; parameters: key: −: no binding; +: very weak binder; ++: weak binder; +++: good binder; ++++: very good binder
Method: as §1, §2, §3

FZD3 CRD = biological target: T3, FZD3 CRD; assay: as above; parameters: key: −: no binding; +: very weak binder; ++: weak binder; +++: good binder; ++++: very good binder
Method: as §1, §2, §3

FZD4 CRD = biological target: T4, FZD4 CRD; assay: as above; parameters: key: −: no binding; +: very weak binder; ++: weak binder; +++: good binder; ++++: very good binder
Method: as §1, §2, §3

FZD5 CRD = biological target: T5, FZD5 CRD; assay: as above; parameters: key: −: no binding; +: very weak binder; ++: weak binder; +++: good binder; ++++: very good binder
Method: as §1, §2, §3

FZD10 CRD = biological target: T6, FZD10 CRD; assay: as above; parameters: key: −: no binding; +: very weak binder; ++: weak binder; +++: good binder; ++++: very good binder
Method: as §1, §2, §3

ASPC-1 cells = assay: Effect of anti-FZD5 Fabs on proliferation of pancreatic cancer cell lines (percent growth inhibition); type: cell-based, human; conditions: Fab 2 μg/ml

Row | Molecule | percent growth inhibition, RWP1 2 μg/ml (RWP1 cells) [%] | Immunofluorescence binding, Frizzled CRD overexpressed on CHO cells: FZD8 (FZD8 CRD) | Immunofluorescence binding, Frizzled CRD overexpressed on CHO cells: FZD6 (FZD6 CRD) | Immunofluorescence binding, Frizzled CRD overexpressed on CHO cells: FZD3 (FZD3 CRD) | Immunofluorescence binding, Frizzled CRD overexpressed on CHO cells: FZD4 (FZD4 CRD) | Immunofluorescence binding, Frizzled CRD overexpressed on CHO cells: FZD5 (FZD5 CRD) | Immunofluorescence binding, Frizzled CRD overexpressed on CHO cells: FZD10 (FZD10 CRD) | percent growth inhibition, ASPC-1 2 μg/ml (ASPC-1 cells) [%]
1 | B1 | 1.19 | + | − | − | − | ++++ | +++ | 20.56
2 | B2 | 62.88 | − | − | − | − | + | − | −14.51
3 | B3 | 8.52 | + | − | − | − | ++++ | − | 4.49
4 | B4 | 8.52 | + | − | − | − | ++++ | − | 10.02
5 | B5 | 12.89 | − | − | − | − | +++ | − | −6.84
